Results on one molecule are retold here after patent US20050048070A1 (published 2005).

One test deals with T1, K8 (1-85).
T1 construct: also called K8(1-85) GST fusion protein; not shown: N-terminal GST carrier (modified pGEX-2T) and its linker
T1 chain: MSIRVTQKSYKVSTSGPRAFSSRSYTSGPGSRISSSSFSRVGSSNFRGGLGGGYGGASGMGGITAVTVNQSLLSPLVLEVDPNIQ
The experiment in a line: Western blot of SDS-PAGE-separated K8 GST fusion proteins, stained with COU-1 alone. A general note: Immunoblotting shows a protein as a band on a membrane.

The target of test [1] is T2, K18(1-187) GST fusion protein (human, UniProt P05783 2-188).
T2 construct: Alone, not complexed; not shown: glutathione S-transferase (GST) fusion partner, modified pGEX-2T vector
T2 sequence: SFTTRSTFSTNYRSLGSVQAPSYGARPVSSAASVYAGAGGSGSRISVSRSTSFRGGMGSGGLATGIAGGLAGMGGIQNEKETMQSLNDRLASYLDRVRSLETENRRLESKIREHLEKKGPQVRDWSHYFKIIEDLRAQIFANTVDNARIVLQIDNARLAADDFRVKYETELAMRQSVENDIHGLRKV
Briefly: Western blot of SDS-PAGE-separated K18 GST fusion proteins, stained with COU-1 alone.

For test [2], the target named is T3, K18(1-213) GST fusion protein (human, UniProt P05783 2-214).
T3 construct: Alone, not complexed; not shown: glutathione S-transferase (GST) fusion partner, modified pGEX-2T vector
T3 sequence: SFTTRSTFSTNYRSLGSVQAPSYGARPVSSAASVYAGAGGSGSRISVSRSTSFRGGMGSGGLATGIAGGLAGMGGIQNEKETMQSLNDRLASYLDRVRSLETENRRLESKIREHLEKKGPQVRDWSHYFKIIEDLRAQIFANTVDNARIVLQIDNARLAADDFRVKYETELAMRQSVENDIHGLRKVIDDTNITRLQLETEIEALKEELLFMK
Described as above.

Test [3] addresses T4, K18(1-312) GST fusion protein (human, UniProt P05783 2-313).
T4 construct: Alone, not complexed; not shown: glutathione S-transferase (GST) fusion partner, modified pGEX-2T vector
T4 sequence: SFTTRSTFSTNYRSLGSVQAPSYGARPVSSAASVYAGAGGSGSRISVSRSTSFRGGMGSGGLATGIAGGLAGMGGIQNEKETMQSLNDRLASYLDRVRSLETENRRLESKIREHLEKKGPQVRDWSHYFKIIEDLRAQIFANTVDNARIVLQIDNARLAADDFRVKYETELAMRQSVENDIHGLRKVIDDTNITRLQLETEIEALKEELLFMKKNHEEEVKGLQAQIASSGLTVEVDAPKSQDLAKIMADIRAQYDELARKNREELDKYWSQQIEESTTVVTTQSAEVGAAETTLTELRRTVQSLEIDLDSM
Described as above.

In test [4] the target is T5, K18(1-356) GST fusion protein (human, UniProt P05783 2-357).
T5 construct: Alone, not complexed; not shown: glutathione S-transferase (GST) fusion partner, modified pGEX-2T vector
T5 sequence: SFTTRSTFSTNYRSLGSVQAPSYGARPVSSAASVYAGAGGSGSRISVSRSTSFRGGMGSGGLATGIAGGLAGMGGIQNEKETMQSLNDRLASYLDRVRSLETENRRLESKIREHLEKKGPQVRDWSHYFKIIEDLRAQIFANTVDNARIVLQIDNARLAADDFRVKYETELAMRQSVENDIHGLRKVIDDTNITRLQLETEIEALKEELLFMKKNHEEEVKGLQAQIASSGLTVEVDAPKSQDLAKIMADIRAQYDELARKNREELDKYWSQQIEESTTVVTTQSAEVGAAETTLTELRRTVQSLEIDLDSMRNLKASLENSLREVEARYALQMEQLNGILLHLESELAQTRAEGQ
Described as above.

Test [5] deals with T6, recombinant intact K18 (GST fusion protein) (human, UniProt P05783 2-430).
T6 construct: Alone, not complexed with K8; also called full length K18; cytokeratin 18; not shown: glutathione S-transferase (GST) fusion partner, modified pGEX-2T vector
T6 sequence: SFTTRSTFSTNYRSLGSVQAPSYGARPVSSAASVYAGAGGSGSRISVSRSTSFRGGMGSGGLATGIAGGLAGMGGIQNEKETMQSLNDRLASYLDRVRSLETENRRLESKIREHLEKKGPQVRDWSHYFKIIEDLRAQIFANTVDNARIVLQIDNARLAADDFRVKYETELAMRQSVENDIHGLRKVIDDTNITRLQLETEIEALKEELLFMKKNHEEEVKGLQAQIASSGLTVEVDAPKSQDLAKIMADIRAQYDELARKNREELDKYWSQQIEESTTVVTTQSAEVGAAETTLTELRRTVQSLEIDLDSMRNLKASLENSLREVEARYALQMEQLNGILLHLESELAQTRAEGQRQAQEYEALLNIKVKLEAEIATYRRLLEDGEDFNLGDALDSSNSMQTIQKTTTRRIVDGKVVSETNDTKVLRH
Described as above.

Test [6] concerns the target T7, K8(1-85)/K18(1-187) heterotypic complex (human, UniProt P05787 2-86; P05783 2-188).
T7 construct: Heterotypic complex of two GST fusion proteins; not shown: glutathione S-transferase (GST) fusion partner, modified pGEX-2T vector
T7 chain 1: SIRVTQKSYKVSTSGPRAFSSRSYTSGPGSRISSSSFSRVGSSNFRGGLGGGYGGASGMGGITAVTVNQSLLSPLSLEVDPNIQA
T7 chain 2: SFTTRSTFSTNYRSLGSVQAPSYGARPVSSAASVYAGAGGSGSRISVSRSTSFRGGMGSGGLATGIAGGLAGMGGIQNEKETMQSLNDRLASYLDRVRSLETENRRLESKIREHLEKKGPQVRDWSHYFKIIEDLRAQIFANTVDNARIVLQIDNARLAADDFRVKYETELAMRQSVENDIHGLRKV
Briefly: heterotypic association assay: blotted K8 proteins incubated with purified K18(1-187), then stained with COU-1.

Test [7] addresses T8, N-terminally truncated K8 protein where the first 22 amino acids were missing (from colon cancer tissue) (human, UniProt P05787 24-483).
T8 construct: also called K8 starting at residue 23
T8 chain: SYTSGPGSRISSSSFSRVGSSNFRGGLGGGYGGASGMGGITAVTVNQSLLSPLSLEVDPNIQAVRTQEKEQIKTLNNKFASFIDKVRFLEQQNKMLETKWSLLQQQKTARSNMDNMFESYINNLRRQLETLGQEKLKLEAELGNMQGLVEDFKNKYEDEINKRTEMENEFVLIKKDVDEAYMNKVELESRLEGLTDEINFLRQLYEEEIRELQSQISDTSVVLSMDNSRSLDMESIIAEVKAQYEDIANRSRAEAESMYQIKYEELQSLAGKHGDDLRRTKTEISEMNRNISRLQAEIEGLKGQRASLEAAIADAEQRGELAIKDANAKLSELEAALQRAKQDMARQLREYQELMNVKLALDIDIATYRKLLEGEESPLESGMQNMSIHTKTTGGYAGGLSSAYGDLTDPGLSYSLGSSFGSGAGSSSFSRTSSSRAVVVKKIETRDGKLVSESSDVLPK
The experiment in a line: Western blot of cytokeratin bands from colon cancer tissue, bands identified by N-terminal sequencing (drawn table).

B1: human monoclonal IgM antibody COU-1 (antibody, V domains shown)
VH: GAEVKKPGASVKVSCKASDYTFSSYYMHWVRQAPGQGLEWMGIINPSGGSTSYAQKFQGRVTMTRDTSTNTVYMELSSLRSEDTAVYYCARDQVVVAATLSNYGMDVWGQGTTVTVSS
VL: ELTQSPGTLSLSPGERATLSCRASQSVSSSYLAWYQQKPGQAPRLLIYDASNRATGIPARFSGSGSGTDFTLTISSLEPEDFAVYYCQQGTNWGIAFGQGTRLDIKR
notes: Human IgM with kappa light chain, secreted by hybridoma B9165 (ECACC 87040201), purified from culture supernatant; also called HMab COU-1; HuMab COU-1
As for B1, the binding result (with K8 (1-85); in test [1]; in test [2]; in test [3]; in test [4]; in test [5]) was “no binding (tested: 5 µg/ml COU-1 (P-0279))” throughout. Moreover, the binding result is reported as “no binding (tested: 5 µg/ml COU-1 (P-0285))” in test [6] and “no binding (tested: 5 µg/ml COU-1 (P-0279))” in test [7].
